Data from PMC8725159, “CryoEM analysis of small plant biocatalysts at sub-2 Å resolution” (Acta Crystallographica. Section D, Structural Biology, 2022).
Several values for one entry are separate records, joined by “and”; a condition that tells them apart may be missing. Identical values can stand only once.

Experiments:
[1] = target: borneol dehydrogenase 1 from Salvia rosmarinus (SrBDH1) (Salvia rosmarinus); assay: SEC-MALS; Superdex 200 Increase 10/300 column, 18°C, miniDAWN TREOS detector with refractive-index detector
[2] = target: borneol dehydrogenase 1 from Salvia rosmarinus (SrBDH1) (Salvia rosmarinus); assay: cryo-EM structure; single-particle cryoEM, 1 mg/ml on UltrAuFoil R1.2/1.3 grids, Titan Krios 300 kV, Falcon 3EC, D2 symmetry imposed
[3] = target: the molecule itself; assay: SEC-MALS; Superdex 200 Increase 10/300 column, 18°C, miniDAWN TREOS detector with refractive-index detector

stoichiometry N [1] | stoichiometry N [2] | Molecule | stoichiometry N [3]
4 | 4 | borneol dehydrogenase 1 from Salvia rosmarinus (SrBDH1) (enzyme) | –
– | – | borneol dehydrogenase 2 from Salvia officinalis (SoBDH2) (enzyme, borneol-type dehydrogenase SoBDH2 from Salvia officinalis, GenBank MT525099; synthetic gene codon-optimized for E. coli; theoretical molecular mass with the His6 tag 32.2 kDa; Homotetramer with D2 symmetry in cryoEM; also called Salvia officinialis borneol dehydrogenase 2; source: E. coli BL21-RIL, purified (Ni-NTA, SEC); not shown: His6, N-terminal, kept) MATGAANVESPQSLPLRLLGRVALVTGGSSGIGESIVLLFRKHGAKVCIADVQDNQGQRLCETLGGSSDIAFCHCDVTIEDDVKRAVDFTVDKFGTLDIMVNNAGVSGPPCPDIRDFELSAFDRVFDINVRGVFIGMKHAARIMIPAKKGSIISISSVASTMGGLGPHAYTGSKHAVLGLTKNVAAELGKHGIRVNCVSPYAVATSLALAHLPEAERTEDTWDDFRRFVADNANLQGVELTMEDVANAVVFLASDEARYVSGMNLMVDGGFTSTNHALQVFRP | 8 and 4
